This passage reports amyloid nucleation score results from the supplement of paper PMC12042874.

± gives the uncertainty stated by the source.

The data set is described as follows: amyloid nucleation score (Sup35N fusion, yeast selection) (log enrichment); library NNK2; higher = more nucleation; inactive = no reads after selection. Summed up: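 For the nucleation score, DiMSum gave the log enrichment of output over input reads, centred on the mode score of non-aggregating sequences. Psi-negative yeast expressing Sup35N fused to peptides of 20 random codons were induced with 100 μM copper sulfate for 24 hours and grown 7 days at 30°C on medium lacking adenine and uracil. Input and output plasmid inserts were Illumina-sequenced, and sequences with under 100 input reads were excluded.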
On to VRSPCVDVYFPYSLVLDMCL, for which the amyloid nucleation score came to 0.614 ± 0.62.

In the case of VRSVLVRKGTWARCTRMVAM, the amyloid nucleation score was 1.05 ± 0.56.

On to VRSWTGPSEVQNCKSEFSGA, for which the amyloid nucleation score was 0.731 ± 0.28.

The substance VRTNDKYQEVFPSVYYNLGN came in with an amyloid nucleation score of -0.944 ± 1.1.

With VRTTYYNELETFLVLTPAMR, the amyloid nucleation score is 1.36 ± 0.22.

VRVHCLHLVYYYSQCPRYNN displayed an amyloid nucleation score of -0.277 ± 1.1.

The substance VRYMLRTLEYMSRVGCSISH had an amyloid nucleation score of 0.101 ± 0.76.

For the substance VSACSDLNGW, the amyloid nucleation score was -0.233 ± 0.47.

As for VSARDHLGKRNRHWINC, the amyloid nucleation score is -0.626 ± 0.55.

In turn, VSASFEFRFSSGKWACLWRG gave an amyloid nucleation score of 4.31 ± 0.057.

VSDLLPVSDGSFTNPIVMLV came in with an amyloid nucleation score of 0.323 ± 0.26.

As for VSDNFTYVLVYESGTGFTVS, the amyloid nucleation score entry is “inactive”.

On to VSENDGVRACCLS, for which the amyloid nucleation score turned out to be 0.474 ± 0.44.

With VSHFPGSPLTNKRSMLPAQM, the amyloid nucleation score came to 2.01 ± 0.14.

VSITHQLTYW returned an amyloid nucleation score of 1.33 ± 0.53.

In turn, VSMLISTTPAYIIRQFKGLW returned an amyloid nucleation score of 1.09 ± 0.68.

Substance VSNGVVMDKCIRKICTVLTM registered an amyloid nucleation score of -0.667 ± 0.45.

VSNREMYVNR gave an amyloid nucleation score of 0.086 ± 0.74.

As for VSQARVLCFMNFGRFLTLNE, the amyloid nucleation score is 5.51 ± 0.09.

VSRMLSVMSMTTRMFLPYTS yielded an amyloid nucleation score of 0.152 ± 0.61.

As to VSRMYKHLSYMVLIYSPWRE, the amyloid nucleation score is -0.315 ± 1.

VSRSVY: the amyloid nucleation score is 0.166 ± 0.3.

VSRVEYCSGCMSANYLL registered an amyloid nucleation score of 7.7 ± 0.08.

Regarding VSSETSGFMIGYLYVDLNGV, the amyloid nucleation score is -0.814 ± 0.4.

Regarding VSSMHFFWF, the amyloid nucleation score is -0.378 ± 0.54.

Regarding VSTGAWCYGLWSVLQGWERG, the amyloid nucleation score worked out at 5.02 ± 0.082.

Regarding VSTWTYSHRAPRG, the amyloid nucleation score worked out at 1.52 ± 0.26.

As for VSVIGKFSFHPKRMRG, the amyloid nucleation score is -0.481 ± 0.39.

VSVRGTHVL showed an amyloid nucleation score of -0.28 ± 0.61.

VSWLDYHVSPSRCRGTLNPC came in with an amyloid nucleation score of 0.463 ± 0.38.

In turn, VTAAVNCFVNKAQLCTCLFM displayed an amyloid nucleation score of 9.097 ± 0.052.

For the substance VTEIFMLAL, the amyloid nucleation score was -0.129 ± 1.1.

Substance VTFSSIVTISLISYLQRFWR yielded an amyloid nucleation score of 5.77 ± 0.04.

Turning to VTGNTSRLISRPGANPNCMG, the amyloid nucleation score is -0.03 ± 0.56.

Substance VTHNYKFIQLGSEK came in with an amyloid nucleation score of 4.12 ± 0.074.

On to VTRFLISYTRIGRMYSVGFV, for which the amyloid nucleation score was -0.523 ± 1.

Substance VTRKTWFFVLCNQLFTLFAD showed an amyloid nucleation score of 6.975 ± 0.058.

VTSLDFKFNVGEY registered an amyloid nucleation score of 0.832 ± 0.67.

As to VTSLG, the amyloid nucleation score was -0.249 ± 0.25.

VTWALCAGGRQFVTFSS had an amyloid nucleation score of 8.505 ± 0.045.

Consider VTWGIIYRLSDG, for which the amyloid nucleation score turned out to be 3.58 ± 0.09.

VTYEIVLWSWIKDVVHKLLR yielded an amyloid nucleation score of -0.483 ± 0.48.

Take VTYLGACVYRCCEMSLVFRF: the amyloid nucleation score is -0.412 ± 0.63.

VVANINEVLINPRCSAGFHD yielded an amyloid nucleation score of 0.683 ± 0.74.

As to VVCYLRIYRRILYSGIKKWP, the amyloid nucleation score turned out to be 3.71 ± 0.073.

Take VVDGLRATAH: the amyloid nucleation score was determined as 0.366 ± 0.38.

Regarding VVIAKDIMFSGSRINMVGSV, the amyloid nucleation score was -1.23 ± 1.1.

With VVIHLLPSES, the amyloid nucleation score result is “inactive”.

On to VVIILNDTNFLMINMVQRVM, for which the amyloid nucleation score is 4.327 ± 0.039.

Regarding VVKLMAMFGRTNVLTLERHL, the amyloid nucleation score turned out to be 0.655 ± 0.31.

With VVLRELRIYIMNVWDPRGTL, the amyloid nucleation score is -0.998 ± 0.62.

As to VVMNFMTDVNSLVWPTS, the amyloid nucleation score result is “inactive”.

Substance VVNSQQFVGLCSRRSA had an amyloid nucleation score of 0.576 ± 0.42.

For the substance VVRRYICRVLRMFWYWVVRE, the amyloid nucleation score was -0.145 ± 0.76.

VVRYRLCSWMDIMCNVAACQ came in with an amyloid nucleation score of 4.267 ± 0.042.

VVTFTDYI registered an amyloid nucleation score of 0.237 ± 1.

VVTHYLQIYPRFSMHFFVSV had an amyloid nucleation score of 1.33 ± 0.22.

The substance VVTIIRSSVWVSTLCFGFFV came in with an amyloid nucleation score of 4.01 ± 0.068.

Consider VVTLRCSIVKEDTNGLLPGV, for which the amyloid nucleation score is 2.79 ± 0.09.

VVVLFIEVLNCYLRGKVKCM registered an amyloid nucleation score of -0.802 ± 0.39.

In turn, VVVNTYYSGIFMQVFLFL gave an amyloid nucleation score of 6.76 ± 0.037.

For VVVNYVFPLSEFMLISDAKC, the amyloid nucleation score amounted to 0.833 ± 0.8.

Consider VVWCGTYVYHDV, for which the amyloid nucleation score was determined as 8.885 ± 0.075.

Turning to VVWEYIRYRCCTYDAVYTRS, the amyloid nucleation score is 0.522 ± 0.74.

Take VWDRITLFCSLLIRVHGLCT: the amyloid nucleation score came to 0.269 ± 0.29.

Take VWILSLAWLLPGYTCPFGPK: the amyloid nucleation score was found to be 4.801 ± 0.042.

VWKINISWRPSLSLLVIRLV had an amyloid nucleation score of -0.594 ± 0.27.

Substance VWLFNLKGPLTRNLLHNLFA registered an amyloid nucleation score of -0.678 ± 0.63.

VWNSIDTIYIYRHNYGFFYF returned an amyloid nucleation score of 0.751 ± 0.36.

For the substance VWPLNYYGWKTNMSSCFHST, the amyloid nucleation score is -1.1 ± 1.1.

VWQFRCGERMTKCLLWGDYG: the amyloid nucleation score turned out to be 0.072 ± 0.31.

As to VWQVERVTIFLGFVKNLGLV, the amyloid nucleation score is 2.68 ± 0.084.

VWRWSKRNATYIGAGIWSGR: the amyloid nucleation score was 1.42 ± 0.21.

In the case of VWVSSIDMGLFVANLCETAS, the amyloid nucleation score was -0.074 ± 1.1.

On to VWYIALLQCQVRITYKGRVR, for which the amyloid nucleation score is 5.43 ± 0.073.

VYCRNVELIGAYGIFAGSHI showed an amyloid nucleation score of -0.187 ± 0.79.

Regarding VYEAWRTMQTGMYGVNRVWS, the amyloid nucleation score was 0.911 ± 0.15.

In turn, VYHSGMTLFNFCCSMHLVEL had an amyloid nucleation score of 9.22 ± 0.041.

As to VYKYI, the amyloid nucleation score was -0.578 ± 1.1.

Turning to VYNSFSAFFYG, the amyloid nucleation score is 7.051 ± 0.036.

As for VYQMCFMAILVIRIVR, the amyloid nucleation score came out at 0.439 ± 0.25.

As to VYRNVLSRMQSLCVF, the amyloid nucleation score entry is “inactive”.

VYTWNGRSWEYWTCPTLRNP: the amyloid nucleation score was 0.371 ± 0.8.

In turn, VYVRFWESSSCYTRGRNGWN had an amyloid nucleation score of 3.08 ± 0.086.

Consider VYVWDELFVNKKANWTDL, for which the amyloid nucleation score came out at 1.29 ± 0.47.

WARNEIYRRSTNKWPPMVRG displayed an amyloid nucleation score of -0.014 ± 0.76.

Take WAVELLLA: the amyloid nucleation score amounted to 1.03 ± 0.53.

WCCMGDMISVKSLVWEPCVT displayed an amyloid nucleation score of 3.17 ± 0.098.

Substance WCGARLKSDLCILK showed an amyloid nucleation score of -0.494 ± 0.31.

WCHTGKRINFPFICFLWFWC: the amyloid nucleation score entry is “inactive”.

WCLFVLRRADTFRKGESVTC had an amyloid nucleation score of 1.79 ± 0.45.

The substance WCYELIYV displayed an amyloid nucleation score of -0.573 ± 0.79.

Turning to WDCGQTIYGFWDD, the amyloid nucleation score was -0.58 ± 0.48.

For WDGLASLQVSCVAMLLVQSF, the amyloid nucleation score was -0.546 ± 0.39.

Consider WDSQESITKS, for which the amyloid nucleation score was -0.172 ± 0.54.

As for WERDTFAVLLVRNFNR, the amyloid nucleation score came to 0.187 ± 0.43.

Substance WESRLLEYLCTDVNTME yielded an amyloid nucleation score of -0.553 ± 0.48.

As for WFFRVLCLCRTLWNHYSFF, the amyloid nucleation score is 0.054 ± 0.79.

WFGLDVNCLRSWFGLWKFVE displayed an amyloid nucleation score of 0.089 ± 0.56.

As to WFLGMGKFHRRAWAARLFMV, the amyloid nucleation score turned out to be 2.45 ± 0.12.

The substance WFMVYYSLFTVNIGISRMDH yielded an amyloid nucleation score of 3.52 ± 0.16.

WFNCEWEDEFIEGQRVVMTV came in with an amyloid nucleation score of 1.44 ± 0.47.
